In publication PMC11144216:

Target: diffusible Aβ aggregates from postmortem frontal cortex of AD patients (human (endogenous in postmortem frontal cortex))
Assay: single-molecule pull-down (SiMPull); soaked-brain extracts (neat) of frontal cortex of APOE4/4 and APOE3/3 AD patients; captured by biotinylated 6E10; detected with Alexa-Fluor-647 6E10 and Alexa-Fluor-488 EPR19392; two-colour TIRF, colocalisation

Row | percent of Aβ aggregates that are co-aggregates (colocalisation by number) [%] | Substance
1 | 1 | apoE3 in frontal-cortex extracts of homozygous APOE3 AD patients (from UniProt P02649 19-317) (natural protein)
2 | 5 | apoE4 in frontal-cortex extracts of homozygous APOE4 AD patients (from UniProt P02649 19-317) (natural protein)
